B1: Hairpin Ribozyme (parent)
chain: GUCCUCUUUCACGUGCGCGUGAAAGAGAGAAGUGAACCAGAGAAACACACGUUGUGGUAUAUUACCUGGUA

Variants of B1 are the subject of the series. The series is described as follows: self-cleavage, relative activity (ratio to wild type); higher = more cleavage; co-transcriptional.
Consider C4A G34U, for which the self-cleavage was determined as 1.01.

As to C4U G68A, the self-cleavage is 0.18.

As for C4U G68C, the self-cleavage worked out at 0.0882.

Regarding U5C C48A, the self-cleavage was determined as 0.122.

For the variant U5A A45C, the self-cleavage amounted to 0.161.

For C4U G51U, the self-cleavage is 0.194.

In the case of C4U G51A, the self-cleavage was 0.533.

As for U5A G68C, the self-cleavage is 0.11.

Consider U5A G68A, for which the self-cleavage stood at 0.146.

For the variant U5C A45C, the self-cleavage came out at 0.0908.

C4G A31U: the self-cleavage was 0.183.

With C4G A31C, the self-cleavage amounted to 0.176.

Turning to C4A G56C, the self-cleavage is 0.157.

C4U C38U: the self-cleavage amounted to 0.234.

In the case of C4U A59U, the self-cleavage came out at 0.113.

Regarding C4U A59G, the self-cleavage turned out to be 0.163.

Take C4G C6G: the self-cleavage is 0.17.

In the case of C4G C6U, the self-cleavage came to 0.0456.

Take U5A G57C: the self-cleavage came to 0.231.

In the case of U5A G57A, the self-cleavage is 0.154.

As to C4U C37U, the self-cleavage amounted to 0.243.

In the case of U5C A28C, the self-cleavage is 0.139.

For U5A C66A, the self-cleavage was found to be 0.247.

As for C3U G17A, the self-cleavage was determined as 0.682.

For C3U G17C, the self-cleavage turned out to be 0.305.

As to U5A G40A, the self-cleavage worked out at 0.17.

U5A A39C: the self-cleavage stood at 0.139.

For the variant C4U A45U, the self-cleavage was 0.0517.

With U5C A44U, the self-cleavage is 0.0797.

In the case of C4G U63C, the self-cleavage turned out to be 0.112.

As for C4U A44U, the self-cleavage was 0.162.

As to C4G G17C, the self-cleavage stood at 0.121.

With C4G G17U, the self-cleavage was 0.336.

For the variant C4G C38U, the self-cleavage stood at 0.129.

As to U5A G42U, the self-cleavage amounted to 0.275.

Take U5A G42C: the self-cleavage is 0.106.

Regarding C4A A71U, the self-cleavage worked out at 0.138.

For C4G G27A, the self-cleavage was 0.325.

Turning to U5C A35G, the self-cleavage was 0.358.

Take C4A A30U: the self-cleavage came to 0.228.

C4A A30G: the self-cleavage is 0.105.

As to U5A U33G, the self-cleavage was determined as 0.131.

For the variant C4G U8A, the self-cleavage was found to be 0.0905.

C4A C65A: the self-cleavage was 0.148.

Take U5C C37G: the self-cleavage came to 0.205.

In the case of C4A A39U, the self-cleavage turned out to be 0.0907.

For C4U U58G, the self-cleavage was 0.218.

C4G C66U: the self-cleavage stood at 0.178.

In the case of C4G C66A, the self-cleavage was 0.277.

With C4A G13U, the self-cleavage is 0.248.

Take C3U G13C: the self-cleavage stood at 0.324.

On to C4U A61G, for which the self-cleavage was 0.169.

As to C4U A61C, the self-cleavage is 0.294.

Turning to C4U A61U, the self-cleavage was determined as 0.0691.

C4A G19U: the self-cleavage came to 0.221.

On to C4A G68U, for which the self-cleavage was 0.111.

Regarding C4A A31C, the self-cleavage is 0.131.

In the case of C4A G25C, the self-cleavage came out at 0.153.

With C4U U53C, the self-cleavage was determined as 0.398.

In the case of C4G G57A, the self-cleavage came to 0.103.

Consider U5A C6U, for which the self-cleavage worked out at 0.228.

As for U5A C6G, the self-cleavage worked out at 0.192.

With C4A C38G, the self-cleavage came out at 0.175.

Take C4A C38A: the self-cleavage is 0.104.

For C4G C10U, the self-cleavage was 0.198.

In the case of U5A C48U, the self-cleavage was found to be 0.104.

For C4A U33C, the self-cleavage was determined as 0.132.

As for C4A U33A, the self-cleavage was 0.174.

As to U5A G19U, the self-cleavage was found to be 0.312.

U5A G19C: the self-cleavage was 0.245.

Take C3U G68U: the self-cleavage turned out to be 0.19.

As for U5C A22C, the self-cleavage is 0.586.

Regarding U5C A22U, the self-cleavage was determined as 0.732.

U5A C50A: the self-cleavage worked out at 0.161.

Turning to U5A C50G, the self-cleavage was 0.0755.

As for U5C G21U, the self-cleavage turned out to be 0.593.

Regarding U5C G21C, the self-cleavage was found to be 0.6.

As for U5C G21A, the self-cleavage amounted to 0.62.

As to C3U G21A, the self-cleavage turned out to be 0.483.

As for C4U G29A, the self-cleavage is 0.107.

In the case of C4U G29U, the self-cleavage is 0.194.

On to C4G A64G, for which the self-cleavage came out at 0.124.

C4G A64U: the self-cleavage was 0.142.

C4U G32U: the self-cleavage is 0.0825.

Consider C4U G32C, for which the self-cleavage stood at 0.114.

As for C4A U7A, the self-cleavage turned out to be 0.175.

As for C4A U7C, the self-cleavage turned out to be 0.147.

Regarding U5A G13A, the self-cleavage is 0.139.

Take C4G A44U: the self-cleavage amounted to 0.164.

For C4G A44G, the self-cleavage worked out at 0.0493.

Take C4A C12U: the self-cleavage was 0.319.

For the variant U5A A49G, the self-cleavage came out at 0.103.

Take U5A G21U: the self-cleavage amounted to 0.322.

Regarding U5A U58C, the self-cleavage is 0.615.

Regarding U5A U58A, the self-cleavage turned out to be 0.387.

As for C4G C50A, the self-cleavage was 0.147.

For C4U G42C, the self-cleavage stood at 0.253.

As for U5A G29C, the self-cleavage was 0.153.

In the case of C4A G42U, the self-cleavage came to 0.115.

In the case of C4U A22C, the self-cleavage was determined as 0.172.

Consider C4A A23U, for which the self-cleavage stood at 0.251.

On to U5C C65U, for which the self-cleavage stood at 0.24.

As for U5A U52A, the self-cleavage turned out to be 0.646.

As to C4U G13A, the self-cleavage is 0.238.

In the case of C4U C10G, the self-cleavage came to 0.264.

Consider U5A G17U, for which the self-cleavage was determined as 0.395.

For the variant C4U U9C, the self-cleavage was determined as 0.22.

Turning to C3U U70G, the self-cleavage was 0.371.

As to C3U U67G, the self-cleavage stood at 0.164.

For the variant C3U G15U, the self-cleavage came out at 0.474.

As for C3U G15A, the self-cleavage is 0.416.

On to C4A C18A, for which the self-cleavage was found to be 0.13.

As to C4U A43U, the self-cleavage turned out to be 0.202.

For the variant C4U C18G, the self-cleavage is 0.349.

As for C4U C18U, the self-cleavage was 0.514.

For the variant U5A U67C, the self-cleavage came to 0.111.

As for U5A U67A, the self-cleavage stood at 0.0927.

C3U G34A: the self-cleavage turned out to be 0.747.

C4G A43G: the self-cleavage is 0.121.

Take C4A G51U: the self-cleavage was found to be 0.148.

C4A G51A: the self-cleavage was determined as 0.232.

For the variant C3U G57U, the self-cleavage was 0.204.

With C3U G57A, the self-cleavage amounted to 0.0631.

As to C4G A47G, the self-cleavage stood at 0.168.

With U5C C16U, the self-cleavage amounted to 0.71.

Regarding U5C C16G, the self-cleavage is 0.516.

Turning to C3U G19U, the self-cleavage is 0.502.

On to C4U A26C, for which the self-cleavage is 0.144.

As to C3U U20G, the self-cleavage turned out to be 0.561.

Take C3U G69U: the self-cleavage was determined as 0.106.

Take C4G U20C: the self-cleavage worked out at 0.135.

As to U5A A26U, the self-cleavage was 0.67.

Consider U5C A30G, for which the self-cleavage is 0.111.

In the case of U5C A30C, the self-cleavage was found to be 0.154.

Turning to C4U U20A, the self-cleavage came out at 0.281.

For the variant C4U U20C, the self-cleavage was 0.24.

Take C4A A43U: the self-cleavage stood at 0.184.

For the variant U5A A30C, the self-cleavage was 0.0813.

Consider C4A C48A, for which the self-cleavage stood at 0.131.

Consider C3U G25C, for which the self-cleavage worked out at 0.0917.

For the variant C4U C16A, the self-cleavage came to 0.41.

With C4G G25A, the self-cleavage turned out to be 0.156.

U5C C38U: the self-cleavage was determined as 0.298.

For C3U U58G, the self-cleavage was determined as 0.404.

In the case of U5A C38U, the self-cleavage turned out to be 0.0767.

For the variant C4A U53G, the self-cleavage stood at 0.27.

On to U5C G25C, for which the self-cleavage turned out to be 0.202.

Turning to U5C G25U, the self-cleavage amounted to 0.28.

Consider U5A U20G, for which the self-cleavage stood at 0.566.

As to U5A U20C, the self-cleavage is 0.358.

Consider C4G G32C, for which the self-cleavage is 0.115.

In the case of C4G G32U, the self-cleavage was found to be 0.149.

As for U5C A59G, the self-cleavage was 0.222.

With U5C A59U, the self-cleavage was 0.0936.

On to C4U U60G, for which the self-cleavage came out at 0.299.

For the variant C4A C6A, the self-cleavage stood at 0.166.

Regarding U5A A36C, the self-cleavage was 0.168.

Take C4U U7G: the self-cleavage stood at 0.235.

In the case of C4U A28C, the self-cleavage is 0.273.

For the variant U5A U55G, the self-cleavage is 0.147.

Take U5A U55A: the self-cleavage was found to be 0.163.

For the variant C4G C18U, the self-cleavage turned out to be 0.284.

For U5A G15C, the self-cleavage worked out at 0.33.

Regarding C3U G32C, the self-cleavage amounted to 0.133.

For C4U U62A, the self-cleavage was 0.143.

On to U5A C37A, for which the self-cleavage worked out at 0.0853.

On to U5A C37U, for which the self-cleavage was 0.291.

The values above are taken from the RNAGym collection of RNA variant scans (doi:10.7554/elife.80360).
